Reference: patent US8227193 (University of California, dated 2012)

Molecular target: T1, human p52 DNA-binding domain (p52 DBD) (human, UniProt Q00653 1-340)
T1 construct: Expressed in E. coli from pET11a, without a poly-His tag; also called p52 RHD; NF-kB2/p52 Rel homology domain
T1 sequence: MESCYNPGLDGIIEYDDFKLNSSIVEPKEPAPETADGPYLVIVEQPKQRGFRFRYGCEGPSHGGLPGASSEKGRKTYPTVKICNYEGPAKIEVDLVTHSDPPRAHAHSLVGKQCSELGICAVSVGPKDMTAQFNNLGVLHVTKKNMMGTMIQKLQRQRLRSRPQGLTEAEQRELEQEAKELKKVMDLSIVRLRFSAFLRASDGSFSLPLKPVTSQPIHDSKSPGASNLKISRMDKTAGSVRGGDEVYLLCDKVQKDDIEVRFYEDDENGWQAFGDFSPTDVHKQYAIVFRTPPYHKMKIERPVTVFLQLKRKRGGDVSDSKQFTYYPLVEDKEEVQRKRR
Experiment: co-refolding from 7 M urea (1:1.2 molar ratio), Ni-affinity capture through the His tag of RelB DBD (uncomplexed p52 DBD flows through), size exclusion; both proteins confirmed by western blotting
Description: His-RelB DBD and p52 DBD that had been purified as described above were mixed together in 1:1.2 molar ratio (i.e., with excess p52 DBD) and diluted to ~0.4 mg/ml concentration in a denaturing buffer B (7 M urea, 0.5 M NaCl, 20 mM Tris pH 7.5, 5 mM DTT, 10% glycerol). The denatured protein mixture (100 ml total volume that contained 40 mg total protein) was refolded by slowly removing urea by dialysis. The sample was subjected to dialysis against 2 L buffer C (buffer C was the same as buffer B except it lacked urea) for 6 hours. The dialysis step was repeated two more times. After dialysis, the refolded heterodimer was loaded onto the Ni-affinity column. Excess, uncomplexed p52 DBD flows through the column because it has no poly-His tag to bind Ni-affinity matrix. The heterodimer was eluted with imidazole. The eluate was concentrated and further purified using size exclusion chromatography (Superdex 200, Pharmacia). Fractions containing the heterodimer were pooled and concentrated. The presence of both proteins was confirmed by standard western blotting.

B1: poly histidine tagged murine RelB DNA-binding domain (His-RelB DBD) (other)
chain: MPSRRAARESAPELGALGSSDLSSLSLTVSRTTDELEIIDEYIKENGFGLVGTQLSEMPRLVPRGPASLSSVTLGPAAPPPPATPSWSCTLGRLVSPGPCPRPYLVITEQPKQRGMRFRYECEGRSAGSILGESSTEASKTQPAIELRDCGGLREVEVTACLVWKDWPHRVHPHSLVGKDCTDGVCRVRLRPHVSPRHSFNNLGIQCVRKKEIEAAIERKIQLGIDPYNAGSLKNHQEVDMNVVRICFQASYRDQQGHLHRMDPILSEPVYDKKSTNTSELRICRINKESGPCTGGEELYLLCDKVQKEDISVVFSTASWEGRADFSQADVHRQIAIVFKTPPYEDLEISEPVTVNVFLQRLTDGVCSEPLPFTYLPRDHDSYGVDKKRKRGLPDVLGEL
notes: Expressed in E. coli from pET15b as a poly histidine fusion protein; also called RelB RHD; RelB Rel homology domain; not shown: poly-histidine tag from vector pET15b (Novagen)
B1: binds.
